# Experimental data taken from US7579150B1, “Mobile RNA acts as a signal to regulate plant growth and development” (Iowa State University Research Foundation, Inc., priority 2004, dated 2009).
# T1: POTH1 (Solanum tuberosum)
# T1 chain: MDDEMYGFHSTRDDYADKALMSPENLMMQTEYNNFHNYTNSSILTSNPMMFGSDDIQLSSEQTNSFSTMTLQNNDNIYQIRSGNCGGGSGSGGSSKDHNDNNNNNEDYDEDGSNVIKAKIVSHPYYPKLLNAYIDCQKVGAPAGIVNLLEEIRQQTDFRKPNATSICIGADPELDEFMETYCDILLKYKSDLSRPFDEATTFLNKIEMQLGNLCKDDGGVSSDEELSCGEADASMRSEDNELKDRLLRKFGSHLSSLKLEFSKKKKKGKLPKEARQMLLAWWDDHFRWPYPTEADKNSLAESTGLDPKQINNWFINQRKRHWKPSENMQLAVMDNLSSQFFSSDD
# T2: StBEL-05 (Solanum tuberosum)
# T2 chain: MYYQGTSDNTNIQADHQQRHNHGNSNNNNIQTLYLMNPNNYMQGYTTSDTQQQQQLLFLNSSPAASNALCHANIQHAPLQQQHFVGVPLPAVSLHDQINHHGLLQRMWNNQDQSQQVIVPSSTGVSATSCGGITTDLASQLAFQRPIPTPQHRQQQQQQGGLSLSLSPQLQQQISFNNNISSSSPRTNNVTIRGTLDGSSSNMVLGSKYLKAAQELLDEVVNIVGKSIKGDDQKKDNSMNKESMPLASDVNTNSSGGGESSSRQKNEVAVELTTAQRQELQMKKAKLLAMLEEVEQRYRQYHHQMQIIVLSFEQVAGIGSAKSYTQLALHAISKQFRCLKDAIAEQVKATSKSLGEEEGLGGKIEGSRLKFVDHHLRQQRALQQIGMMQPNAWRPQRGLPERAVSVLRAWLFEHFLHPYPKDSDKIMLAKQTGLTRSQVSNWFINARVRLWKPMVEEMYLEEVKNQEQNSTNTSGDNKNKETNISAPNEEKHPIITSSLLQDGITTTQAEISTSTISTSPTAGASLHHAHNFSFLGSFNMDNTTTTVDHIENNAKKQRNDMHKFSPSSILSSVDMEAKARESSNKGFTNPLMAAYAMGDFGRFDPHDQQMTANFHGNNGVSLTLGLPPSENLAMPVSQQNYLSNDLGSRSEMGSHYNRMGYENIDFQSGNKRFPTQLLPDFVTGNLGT
# T3: StBEL-05/POTH1 heterodimer (Solanum tuberosum)
# T3 chain 1: T2 chain
# T3 chain 2: T1 chain
# B1: StBEL-05: BEL transcription factor from Solanum tuberosum, SEQ ID NO:2, 688 aa (protein, listed as Solanum tuberosum)
# chain: T2 chain
# Tests used:
# POTH1 [1] = target: T1, POTH1; assay: cell_activity; conditions: tobacco protoplasts, GUS reporter
# StBEL-05 = target: T2, StBEL-05; assay: cell_activity; conditions: tobacco protoplasts, GUS reporter
# [2] = target: T3, StBEL-05/POTH1 heterodimer; assay: cell_activity; conditions: tobacco protoplasts, GUS reporter
# [3] = target: POTH1 (full-length) in pBridge, fused to the GAL4 DNA-binding domain (Solanum tuberosum); assay: yeast two-hybrid, quantitative beta-galactosidase assay; reference: full-length construct StBEL-05 (pAD-05)
# POTH1 [4] = assay: Yeast two-hybrid interaction with POTH1 (nutritional selection, beta-galactosidase); type: cell-based, potato; conditions: yeast strain AH109, nutritional markers and lacZ
# From the text: The Matchmaker two-hybrid system (Clontech, CA) was used for the yeast two-hybrid screen. Yeast transformation and plasmid rescue into DH5-a E. coli cells were according to the manufacturer's instructions. Full-length POTH1 was cloned into the pBridge (Clontech, CA) vector and used as bait to screen the potato (S. tuberosum ‘Desireé’) stolon cDNA library in pAD-GAL4-2.1 (Stratagene, Calif.). Positive interactions were confirmed by cotransforming yeast strain AH109 with each purified pAD plasmid and pBridge: POTH1 and plating on -leucine/-tryptophan (transformation control) and -leucine/-tryptophan/-histidine/-adenine (selection) nutrient medium. Induction of the AH109 reporter gene, lacZ, was measured with a yeast β-galactosidase assay kit (Pierce Chemicals). β-galactosidase activity (FIG. 9B) was determined from a known density of yeast cells and calculated as 1000×OD420/time of color reaction (minutes)×volume of yeast culture (ml)×OD600.
# The StBEL-05 deletion constructs were amplified by PCR, then cloned into the vector, pGAD, in-frame with the GAL4 activation domain. POTH1 deletion constructs were amplified by PCR, and cloned into pBridge (Clontech) in-frame with the GAL4 binding domain. Sequencing of selected cDNAs and constructs was performed at the Iowa State University DNA Facility. For deletion analysis, modified constructs of POTH1 were cloned into the pBridge vector for fusion with the DNA-binding domain of GAL4 (FIG. 10A). For StBEL-05, constructs were cloned into the pGAD vector for fusion with the activating domain of GAL4 (FIG. 10B). Deletion constructs were made from both the amino and carboxy termini. These mutants were then tested for interaction in the yeast two-hybrid system by cotransforming into yeast strain AH109 with the corresponding full-length partner (StBEL-05 in pGAL4 or POTH1 in pBridge). All constructs were sequenced to verify that they were in-frame. Positive interactions were verified for lacZ induction by using a β-galactosidase assay (Pierce Chemical Company). For POTH1, seven deletion constructs were tested (FIG. 10A). For the BEL TFs, a fusion construct of StBEL-05 (653 aa of StBEL-05 sequence) and nine deletion constructs were tested (FIG. 10B).
# ga20ox1 promoter = assay: Transcription (transfection) assay, pGAOP::GUS reporter in tobacco protoplasts; type: cell-based, potato
# From the text: The cauliflowermosaic virus (CaMV) 35S promoter in pBI221 (Clontech, Palo Alto, Calif.) was replaced by an enhancer fragment (−832 to −50) of the 35S promoter plus 980 bp of the ga20ox1 promoter to generate the pGAOP::β-glucuronidase (GUS) reporter construct. With this construct, the reporter GUS transcription level is augmented but its transcription may still be affected by the ga20ox1 promoter. A CaMV 35S promoter-driven luciferase (LUC) construct 35S-LUC (obtained from Dr. Takahashi, Dept. of Biological Sciences, Graduate School of Science, Univ. of Tokyo, Japan) was used as an internal control. Effector constructs were also generated by using pBI221 vector as a backbone, with the GUS gene replaced by the full-length cDNAs of either StBEL-05 or POTH1, downstream of the CaMV 35S promoter. Truncated cDNAs that encode the N-terminal protein-binding domains of StBEL-05 or POTH1 were used to generate the dominant negative constructs, StBEL5ΔC295 and POTH1ΔC122, respectively. The reporter construct with the mutated promoter was generated by site-directed PCR mutagenesis with oligos 5′-CTATTTGACTTC*ACACGGTTATTT-3′ (SEQ ID NO:23) and 5′-AAATAACCGTGTG*AAGTCAAATAG-3′ (SEQ ID NO:24).
# Fully expanded leaves from three- to four-week-old tobacco plants were excised and placed in K3 basal media (Kao et al., “Nutritional Requirements for Growth of Vicia hajastana Cells and Protoplasts at a Very Low Density in Liquid Media,” Planta 126:105-110 (1975), which is hereby incorporated by reference in its entirety) supplemented with 0.4 M sucrose, 0.25% (w-v) cellulases (Karlan Research Products, Santa Rosa, CA), and 0.05% (w-v) macerases (Calbiochem, La Jolla, Calif.) and incubated for overnight at 28° C. After incubation, the liberated protoplasts were filtered through sterile cheesecloth into a Babcock bottle, and centrifuged for 10 minutes at 1000 rpm. Protoplasts were collected from the bottleneck area and washed once in K3 media with 0.4 M sucrose and resuspended in K3 media containing 0.4 M glucose to a final concentration of 4×10^6 protoplasts per milliliter. […]
# Luciferase assays were performed by injecting 100-μL luciferase substrate (Promega, Madison, Wis.) into 20 μL of extract and measuring the emitted photons for 15 seconds in a TD-20 luminometer (Turner Designs, Sunnyvale, Calif.). […] A fluorescence multiwell plate reader, Fluoroskan II (MTX labs, Vienna, Va.), was used to measure GUS activity at 365 nm (excitation) and 455 nm (emission). Each sample was measured three times for both LUC and GUS activity. Relative GUS-LUC activity was calculated by dividing the ratio of GUS activity to LUC activity from different effectors with the ratio from reporter plasmid alone. Relative activities calculated from three transfection replications were presented as a mean±SE.
# [5] = system: ga20ox1 promoter regions P1, P2, P3 and first intron; assay: Gel retardation (gel mobility shift) assay; type: binding, potato; conditions: recombinant protein from E. coli
# From the text: The first intron with partial flanking exon sequence (450 bp) of potato ga20ox1 and its promoter (981 bp, provided by Dr. Salomé Prat, CSIC Cantoblanco Campus, Univ. of Madrid, Spain) were used for gel mobility shift assays. Polymerase chain reaction (PCR) was used to amplify three regions of the promoter: −981 to 636 (P1), −660 to 307 (P2), and −331 to 0 (P3). About a 25-bp overlap was maintained between P1 and P2 or P2 and P3 in the chance that the protein-binding site would span the overlapped region. The first intron of this gene was amplified from potato genomic DNA by using PCR and the oligos 5′-[…]-3′ (SEQ ID NO:21) and 5′-[…]-3′ (SEQ ID NO:22) as primers. These primers were designed based on the site of the first intron of the tobacco GA20 oxidase gene Ntc12. The four fragments were purified on a 1.4% agarose gel and labeled with α^32P-dATP using Klenow fragment. […]
# In the competition assays, unlabeled double-stranded DNA fragments (10×, 25×, 50×, 100×) were incubated with the recombinant protein before the addition of the radioactive probe. The dissociation rates were determined by adding 500-fold more cold DNA fragments to the DNA-binding reactions that were being incubated on ice, and loaded onto the running gel every 10 minutes. […]
# CaMV 35S promoter = assay: Transcription (transfection) assay, 35S GUS construct in tobacco protoplasts; type: cell-based, cauliflower mosaic virus
molecule,measurement,setting,value
ga20ox1 promoter reporter (980 bp),activity,POTH1 [1],> 50 % repression
same,activity,StBEL-05,> 50 % repression
same,activity,[2],80 % repression
"pAD5-1, StBEL-05 deletion construct in pGAD (GAL4 activation domain fusion)","decrease in the induction of the lacZ marker (beta-galactosidase activity) relative to the full-length construct, StBEL-05",[3],55%
B1,interaction with POTH1,POTH1 [4],showed selective interaction
same,decrease of relative GUS-LUC activity of the pGAOP::GUS reporter,"ga20ox1 promoter; co-transfected effector, tobacco protoplasts",more than half
same,repression of ga20ox1 promoter with point mutation in the binding site,ga20ox1 promoter; mutated reporter construct,no detectable repression of promoter activity
same,binding to ga20ox1 regulatory regions,[5],retarded the mobility of all three promoter sequences and the first intron
same,effect on activity of the CaMV 35S promoter,CaMV 35S promoter,Neither StBEL-05 nor POTH1 showed any effect
